Source: PMC6972935
Where two headings read alike, the source gives them in different places.

Columns and labels:
[1] = target: KS-PPT di-domain construct of the yeast FAS α-subunit (S. cerevisiae); assay: SEC; Superdex 200 Increase 30/100 GL column with calibration curve; KS-PPT di-domain construct
[2] = target: KS-PPT di-domain construct of the yeast FAS α-subunit (S. cerevisiae); assay: as above; remark: listed apart in the source
[3] = target: α_ΔMPT-ACP construct of the yeast FAS α-subunit (KS-PPT elongated N-terminally by DM1, DM2 and KR) (S. cerevisiae); assay: SEC; Superose 6 Increase 30/100 GL column, TRIS-HCl buffer N100; protein preparations from purifications under native and denaturing conditions (refolded)

Row | stoichiometry N [1] | stoichiometry N [2] | stoichiometry N [3] | Substance
1 | 2 | 2.5 |  | KS-PPT di-domain construct of the yeast FAS α-subunit (domain or fragment)
2 |  |  | 2 | α_ΔMPT-ACP construct of the yeast FAS α-subunit (KS-PPT elongated N-terminally by DM1, DM2 and KR) (domain or fragment)
